Substitutions are numbered along the chain they refer to.
B1: h6E6-007 (antibody, human IgG1, V domains shown)
VH: EVQLVESGGGLVKPGGSLRLSCAASGFTFSGYGLSWVRQAPGKGLEWVSTISSGGGYTHYAPSVKGRFTISRDNAKNSLYLQMNSLRAEDTAVYYCARHPRDFSYAQDYWGQGTTVTVSS
VL: EIVMTQSPATLSVSPGERATLSCKASQDVGHYVAWYQQKPGQAPRLLIYWASTRATGIPARFSGSGSGTEFTLTISSLQSEDFAVYYCQQYNIYPWTFGQGTKVEIK
notes: human IgG1; also called clone 7
B2: h6E6-055 (antibody, human IgG1, V domains shown)
VH: B1 VH with G31Q, L34H, P62E
VL: B1 VL with V33L
notes: human IgG1; also called clone 55
B3: h6E6-040 (antibody, human IgG1, V domains shown)
VH: B1 VH with G31S, L34H, Q107H
VL: B1 VL with K24R
notes: human IgG1; also called clone 40
B4: h6E6-029 (antibody, human IgG1, V domains shown)
VH: B1 VH with G31H, L34V, P62Q
VL: B1 VL with A55H
notes: human IgG1; also called clone 29
B5: h6E6-056 (antibody, human IgG1, V domains shown)
VH: B1 VH with G31K, L34T
VL: B1 VL with K24R
notes: human IgG1; also called clone 56
B6: grafted humanized 6E6: VH3-11*03 (IMGT) + VK1-8*01 (IMGT) (antibody, V domains shown)
VH: B1 VH with E1Q, V5L, G31N, L34M, V37I, T50Y, H59N, P62D, Q107M
VL: AIRMTQSPSSFSASTGDRVTITCRASQDVGHYLAWYQQKPGKAPKLLIYWASTLQSGVPSRFSGSGSGTDFTLTISCLQSEDFATYYCQQYNIYPWTFGQGTKVEIK
notes: expressed as IgG
B7: grafted humanized 6E6: VH3-21*01 (extended) + VK1-12*01 (IMGT) (antibody, V domains shown)
VH: B1 VH with G31N, L34M, A61V, P62D, Q107M
VL: B6 VL with A1D, R3Q, F11V, T15V, T53S, C77S, S80P
notes: expressed as IgG
B8: grafted humanized 6E6: VH3-21*01 (extended) + VK1-8*01 (IMGT) (antibody, V domains shown)
VH: B1 VH with G31N, L34M, A61V, P62D, Q107M
VL: B6 VL
notes: expressed as IgG
B9: grafted humanized 6E6: VH3-11*03 (IMGT) + VK3-15*01 (IMGT) (antibody, V domains shown)
VH: B1 VH with E1Q, V5L, G31N, L34M, V37I, T50Y, H59N, P62D, Q107M
VL: B1 VL with K24R, V33L
notes: expressed as IgG
B10: grafted humanized 6E6: VH3-11*03 (extended) + VK1-8*01 (IMGT) (antibody, V domains shown)
VH: B1 VH with E1Q, V5L, G31N, L34M, V37I, A61V, P62D, Q107M
VL: B6 VL
notes: expressed as IgG
B11: grafted humanized 6E6: VH3-21*01 (IMGT) + VK1-8*01 (IMGT) (antibody, V domains shown)
VH: B1 VH with G31N, L34M, S35N, T50S, H59Y, P62D, Q107M
VL: B6 VL
notes: expressed as IgG
B12: grafted humanized 6E6: VH3-21*01 (IMGT) + VK1-12*01 (extended) (antibody, V domains shown)
VH: B1 VH with G31N, L34M, S35N, T50S, H59Y, P62D, Q107M
VL: DIQMTQSPSSVSASVGDRVTITCKASQDVGHYVAWYQQKPGKAPKLLIYWASTRHTGVPSRFSGSGSGTDFTLTISSLQPEDFATYYCQQYNIYPWTFGQGTKVEIK
notes: expressed as IgG
B13: grafted humanized 6E6: VH3-11*03 (extended) + VK1-12*01 (extended) (antibody, V domains shown)
VH: B1 VH with E1Q, V5L, G31N, L34M, V37I, A61V, P62D, Q107M
VL: B12 VL
notes: expressed as IgG
B14: grafted humanized 6E6: VH3-21*01 (IMGT) + VK1-12*01 (IMGT) (antibody, V domains shown)
VH: B1 VH with G31N, L34M, S35N, T50S, H59Y, P62D, Q107M
VL: B12 VL with K24R, V33L, T53S, R54L, H55Q, T56S
notes: expressed as IgG
B15: grafted humanized 6E6: VH3-11*03 (IMGT) + VK1-12*01 (IMGT) (antibody, V domains shown)
VH: B1 VH with E1Q, V5L, G31N, L34M, V37I, T50Y, H59N, P62D, Q107M
VL: B12 VL with K24R, V33L, T53S, R54L, H55Q, T56S
notes: expressed as IgG
B16: grafted humanized 6E6: VH3-11*03 (extended) + VK3-15*01 (IMGT) (antibody, V domains shown)
VH: B1 VH with E1Q, V5L, G31N, L34M, V37I, A61V, P62D, Q107M
VL: B1 VL with K24R, V33L
notes: expressed as IgG
B17: grafted humanized 6E6: VH3-11*03 (IMGT) + VK1-12*01 (extended) (antibody, V domains shown)
VH: B1 VH with E1Q, V5L, G31N, L34M, V37I, T50Y, H59N, P62D, Q107M
VL: B12 VL
notes: expressed as IgG
B18: grafted humanized 6E6: VH3-21*01 (extended) + VK3-15*01 (IMGT) (antibody, V domains shown)
VH: B1 VH with G31N, L34M, A61V, P62D, Q107M
VL: B1 VL with K24R, V33L
notes: expressed as IgG
B19: grafted humanized 6E6: VH3-11*03 (extended) + VK1-12*01 (IMGT) (antibody, V domains shown)
VH: B1 VH with E1Q, V5L, G31N, L34M, V37I, A61V, P62D, Q107M
VL: B12 VL with K24R, V33L, T53S, R54L, H55Q, T56S
notes: expressed as IgG
B20: grafted humanized 6E6: VH3-21*01 (extended) + VK1-12*01 (extended) (antibody, V domains shown)
VH: B1 VH with G31N, L34M, A61V, P62D, Q107M
VL: B12 VL
notes: expressed as IgG
B21: grafted humanized 6E6: VH3-21*01 (IMGT) + VK3-15*01 (IMGT) (antibody, V domains shown)
VH: B1 VH with G31N, L34M, S35N, T50S, H59Y, P62D, Q107M
VL: B1 VL with K24R, V33L
notes: expressed as IgG
B22: h6E6-081 (antibody, V domains shown)
VH: B1 VH with G31S, L34M, S35N, P62D
VL: B1 VL with K24R, A55H
notes: also called clone 81
B23: h6E6-115 (antibody, V domains shown)
VH: B1 VH with L34M, A61V, P62T, Q107L
VL: B1 VL with K24R, V33L
notes: also called clone 115
B24: h6E6-117 (antibody, V domains shown)
VH: B1 VH with G31V, L34I, Q107M
VL: B1 VL
notes: also called clone 117
B25: h6E6-089 (antibody, V domains shown)
VH: B1 VH with G31D, L34I, A61V, P62Q, Q107M
VL: B1 VL with V33L
notes: also called clone 89
B26: h6E6-084 (antibody, V domains shown)
VH: B1 VH with G31Q, L34M, A61V, P62Q
VL: B1 VL with V33L
notes: also called clone 84
B27: h6E6-099 (antibody, V domains shown)
VH: B1 VH with G31N, L34M, S35N, Q107M
VL: B1 VL
notes: also called clone 99
B28: h6E6-090 (antibody, V domains shown)
VH: B1 VH with G31T, L34T, Q107L
VL: B1 VL with V33L, A55H
notes: also called clone 90
B29: h6E6-078 (antibody, V domains shown)
VH: B1 VH with G31A, L34S, Q107M
VL: B1 VL
notes: also called clone 78
B30: h6E6-106 (antibody, V domains shown)
VH: B1 VH with G31S, L34I, H59Y, A61V, P62D, Q107L
VL: B1 VL
notes: also called clone 106
B31: h6E6-082 (antibody, V domains shown)
VH: B1 VH with G31K, L34M, P62D, Q107M
VL: B1 VL with V33L, A55H
notes: also called clone 82
B32: h6E6-097 (antibody, V domains shown)
VH: B1 VH with G31A, L34M, A61V, P62E, Q107M
VL: B1 VL
notes: also called clone 97
B33: h6E6-109 (antibody, V domains shown)
VH: B1 VH with G31N, L34T, A61V, P62T, Q107M
VL: B1 VL
notes: also called clone 109
B34: h6E6-110 (antibody, V domains shown)
VH: B1 VH with G31H, L34V, P62E
VL: B1 VL with K24R, V33L
notes: also called clone 110

What follows are binders tested against T1, human ROR2 (human, UniProt Q01974 34-403, limits assumed) (assay: SPR).
T1 sequence (Q01974 34-403 limits assumed): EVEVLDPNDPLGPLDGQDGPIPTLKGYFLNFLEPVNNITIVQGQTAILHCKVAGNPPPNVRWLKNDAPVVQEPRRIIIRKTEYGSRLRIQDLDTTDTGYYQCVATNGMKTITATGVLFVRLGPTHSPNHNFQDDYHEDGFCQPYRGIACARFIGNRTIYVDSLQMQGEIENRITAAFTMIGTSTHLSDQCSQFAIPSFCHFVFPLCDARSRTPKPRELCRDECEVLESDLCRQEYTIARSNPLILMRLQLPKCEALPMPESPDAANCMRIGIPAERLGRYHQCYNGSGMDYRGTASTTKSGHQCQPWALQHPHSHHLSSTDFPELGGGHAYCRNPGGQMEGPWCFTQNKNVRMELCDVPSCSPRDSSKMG
In short: (§1)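 Humanized anti-human ROR2 monoclonal antibodies were tested for binding to human ROR2 by surface plasmon resonance. The antibodies were made by grafting murine complementarity-determining regions into human acceptor frameworks, with the constant region converted to human IgG1. Binding affinity is reported as the dissociation constant (Kd) in nM. Antigen format, concentrations, temperature, buffer and replicates are not stated.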

Kd [nM]	Binder
0.318	B1
0.261	B2
0.186	B3
0.079	B4
0.024	B5

The binders below were run against recombinant human ROR2 D354E (human, UniProt Q01974 34-403) (assay: dot blot on nylon membrane, anti-human IgG-HRP).
Sequence of recombinant human ROR2 D354E (Q01974 34-403 D354E limits assumed): as the sequence (Q01974 34-403 limits assumed) above, with D321E counted along it

binding result	Binder
no binding	B1
no binding	B2
no binding	B3
no binding	B4
no binding	B5

Each binder was assayed against T2, recombinant human ROR2 H349R (human, UniProt Q01974 34-403) (assay: dot blot on nylon membrane, anti-human IgG-HRP).
T2 construct: Human residue replaced with the mouse residue
T2 sequence (Q01974 34-403 H349R limits assumed): as the sequence (Q01974 34-403 limits assumed) above, with H316R counted along it

binding result	Binder
no binding	B1
no binding	B2
no binding	B3
no binding	B4
no binding	B5

The binders below were run against recombinant ROR1 (Homo sapiens (Human), UniProt Q01973 30-406) (assay: dot blot on nylon membrane, anti-human IgG-HRP).
Sequence of recombinant ROR1 (Q01973 30-406 limits assumed): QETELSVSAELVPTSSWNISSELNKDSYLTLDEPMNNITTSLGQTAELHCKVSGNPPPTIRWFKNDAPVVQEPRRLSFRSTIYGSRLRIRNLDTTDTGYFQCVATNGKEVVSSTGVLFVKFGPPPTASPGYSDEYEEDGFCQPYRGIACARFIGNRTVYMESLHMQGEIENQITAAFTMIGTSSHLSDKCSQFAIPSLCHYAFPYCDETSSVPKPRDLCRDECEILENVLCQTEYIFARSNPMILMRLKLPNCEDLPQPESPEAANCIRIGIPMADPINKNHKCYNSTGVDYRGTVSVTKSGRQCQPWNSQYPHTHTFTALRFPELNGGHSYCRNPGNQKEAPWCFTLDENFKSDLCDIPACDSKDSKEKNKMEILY

binding result	Binder
no binding	B1
no binding	B2
no binding	B3
no binding	B4
no binding	B5

What follows are binders tested against T3, recombinant mouse ROR2 (extracellular portion) (mouse, UniProt Q9Z138 34-403) (assay: dot blot on nylon membrane, anti-human IgG-HRP).
T3 construct: also called mROR2
T3 sequence (Q9Z138 other isoform, or with tags, fused parts or gaps limits assumed): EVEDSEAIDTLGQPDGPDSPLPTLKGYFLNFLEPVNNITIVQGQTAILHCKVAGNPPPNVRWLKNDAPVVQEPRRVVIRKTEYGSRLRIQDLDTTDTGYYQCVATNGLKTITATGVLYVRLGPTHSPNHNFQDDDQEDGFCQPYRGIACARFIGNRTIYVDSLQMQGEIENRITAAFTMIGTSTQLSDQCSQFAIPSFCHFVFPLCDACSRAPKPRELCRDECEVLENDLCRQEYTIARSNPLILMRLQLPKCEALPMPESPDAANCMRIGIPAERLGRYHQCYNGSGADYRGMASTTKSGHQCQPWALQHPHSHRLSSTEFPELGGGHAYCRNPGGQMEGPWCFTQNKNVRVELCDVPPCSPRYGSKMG

binding result	Binder
no binding	B1
no binding	B2
no binding	B3
no binding	B4
no binding	B5

Molecular target: T1, human ROR2
Assay: SPR
Remark: another data set of the same source

binding result	Kd [nM]	Binder
no binding		B6
	0.52	B7
	10	B8
	64	B9
	1.1	B10
no binding		B11
no binding		B12
	2.1	B13
no binding		B14
	178	B15
	1.1	B16
	162	B17
	0.58	B18
no binding		B19
	0.67	B20
no binding		B21

Molecular target: T1, human ROR2
Assay: SPR
Remark: another data set of the same source
In short: as §1

Kd [nM]	Binder
0.318	B1
0.261	B2
0.062	B22
0.187	B23
0.323	B24
0.186	B3
2.2	B25
0.108	B26
0.286	B27
0.178	B28
0.079	B4
0.024	B5
0.476	B29
0.642	B30
0.812	B31
0.096	B32
0.151	B33
0.073	B34

Reference: US20260209348A1 (University of California, published 2026)
